Results: US20190270817A1 (Amgen, published 2019)

B1: A-3-009 (20C1.009) x IL-21 (R5Q, R76E) homodimer fusion (other, not shown: a dimerising Fc or GST)
heavy: EVQLLESGGGLVQPGGSLRLSCAASGFTFSSYDMSWVRQAPGKGLEWVSLISGGGSQTYYAESVKGRFTISRDNSKNTLYLQMNSLRAEDTAVYFCASPSGHYFYAMDVWGQGTTVTVSSQGQDQHMIRMRQLIDIVDQLKNYVNDLVPEFLPAPEDVETNCEWSAFSCFQKAQLKSANTGNNERIINVSIKKLKEKPPSTNAGRRQKHRLTCPSCDSYEKKPPKEFLERFKSLLQKMIHQHLSSRTHGSEDS
light: DIQMTQSPSSVSASVGDRVTITCRASQGISNWLAWYQQKPGKAPKLLIFAASSLQSGVPSRFSGSGSGTDFTLTISSLQPEDFATYYCQQAESFPHTFGGGTKVEIKRTVAAPSVFIFPPSDEQLKSGTASVVCLLNNFYPREAKVQWKVDNALQSGNSQESVTEQDSKDSTYSLSSTLTLSKADYEKHKVYACEVTHQGLSSPVTKSFNRGEC
B2: A-3-009 (20C1.009) x IL-21 (R9E, R76A) homodimer fusion (other, not shown: a dimerising Fc or GST)
heavy: EVQLLESGGGLVQPGGSLRLSCAASGFTFSSYDMSWVRQAPGKGLEWVSLISGGGSQTYYAESVKGRFTISRDNSKNTLYLQMNSLRAEDTAVYFCASPSGHYFYAMDVWGQGTTVTVSSQGQDRHMIEMRQLIDIVDQLKNYVNDLVPEFLPAPEDVETNCEWSAFSCFQKAQLKSANTGNNERIINVSIKKLKAKPPSTNAGRRQKHRLTCPSCDSYEKKPPKEFLERFKSLLQKMIHQHLSSRTHGSEDS
light: DIQMTQSPSSVSASVGDRVTITCRASQGISNWLAWYQQKPGKAPKLLIFAASSLQSGVPSRFSGSGSGTDFTLTISSLQPEDFATYYCQQAESFPHTFGGGTKVEIKRTVAAPSVFIFPPSDEQLKSGTASVVCLLNNFYPREAKVQWKVDNALQSGNSQESVTEQDSKDSTYSLSSTLTLSKADYEKHKVYACEVTHQGLSSPVTKSFNRGEC
B3: A-4-006 (20C1.006) x IL-21 (R5A, R76E) homodimer fusion (other, not shown: a dimerising Fc or GST)
heavy: EVQLLESGGGLVQPGGSLRLSCAASGFTFSSYDMSWVRQAPGKGLEWVSLISGGGSNTYYAESVKGRFTISRDNSKNTLYLQMNSLRAEDTAVYFCASPSGHYFYAMDVWGQGTTVTVSSQGQDAHMIRMRQLIDIVDQLKNYVNDLVPEFLPAPEDVETNCEWSAFSCFQKAQLKSANTGNNERIINVSIKKLKEKPPSTNAGRRQKHRLTCPSCDSYEKKPPKEFLERFKSLLQKMIHQHLSSRTHGSEDS
light: DIQMTQSPSSVSASVGDRVTITCRASQGISNWLAWYQQKPGKAPKLLIFAASSLQSGVPSRFSGSGSGTDFTLTISSLQPEDFATYYCQQAESFPHTFGGGTKVEIKRTVAAPSVFIFPPSDEQLKSGTASVVCLLNNFYPREAKVQWKVDNALQSGNSQESVTEQDSKDSTYSLSSTLTLSKADYEKHKVYACEVTHQGLSSPVTKSFNRGEC
B4: A-3-009 (20C1.009) x IL-21 (R5E, R76A) homodimer fusion (other, not shown: a dimerising Fc or GST)
heavy: EVQLLESGGGLVQPGGSLRLSCAASGFTFSSYDMSWVRQAPGKGLEWVSLISGGGSQTYYAESVKGRFTISRDNSKNTLYLQMNSLRAEDTAVYFCASPSGHYFYAMDVWGQGTTVTVSSQGQDEHMIRMRQLIDIVDQLKNYVNDLVPEFLPAPEDVETNCEWSAFSCFQKAQLKSANTGNNERIINVSIKKLKAKPPSTNAGRRQKHRLTCPSCDSYEKKPPKEFLERFKSLLQKMIHQHLSSRTHGSEDS
light: DIQMTQSPSSVSASVGDRVTITCRASQGISNWLAWYQQKPGKAPKLLIFAASSLQSGVPSRFSGSGSGTDFTLTISSLQPEDFATYYCQQAESFPHTFGGGTKVEIKRTVAAPSVFIFPPSDEQLKSGTASVVCLLNNFYPREAKVQWKVDNALQSGNSQESVTEQDSKDSTYSLSSTLTLSKADYEKHKVYACEVTHQGLSSPVTKSFNRGEC
B5: A-2-006 (22D4.006) x IL-21 (R5A, R76E) homodimer fusion (other, not shown: a dimerising Fc or GST)
heavy: EVQLVESGGSVVRPGGSLRLSCAASGFTVDDYSMSWVRQVPGKGLEWVSGINWNGGRTRYADAVKGRFTISRDSAKNSLYLQMNSLRAEDTALYYCAREFNNFESNWFDPWGQGTLVTVSSQGQDAHMIRMRQLIDIVDQLKNYVNDLVPEFLPAPEDVETNCEWSAFSCFQKAQLKSANTGNNERIINVSIKKLKEKPPSTNAGRRQKHRLTCPSCDSYEKKPPKEFLERFKSLLQKMIHQHLSSRTHGSEDS
light: SYELTQPPSVSVSPGQTARITCSGDALPKKYAYWYQQKPGQAPVLVISEDAKRPSGIPERFSGSSSGTMATLTISGAQVEDEADYYCYSTDASGNHRVFGGGTKLTVLGQPKAAPSVTLFPPSSEELQANKATLVCLISDFYPGAVTVAWKADSSPVKAGVETTTPSKQSNNKYAASSYLSLTPEQWKSHRSYSCQVTHEGSTVEKTVAPTECS
B6: A-2-006 (22D4.006) x IL-21 (R5Q, R76E) homodimer fusion (other, not shown: a dimerising Fc or GST)
heavy: EVQLVESGGSVVRPGGSLRLSCAASGFTVDDYSMSWVRQVPGKGLEWVSGINWNGGRTRYADAVKGRFTISRDSAKNSLYLQMNSLRAEDTALYYCAREFNNFESNWFDPWGQGTLVTVSSQGQDQHMIRMRQLIDIVDQLKNYVNDLVPEFLPAPEDVETNCEWSAFSCFQKAQLKSANTGNNERIINVSIKKLKEKPPSTNAGRRQKHRLTCPSCDSYEKKPPKEFLERFKSLLQKMIHQHLSSRTHGSEDS
light: SYELTQPPSVSVSPGQTARITCSGDALPKKYAYWYQQKPGQAPVLVISEDAKRPSGIPERFSGSSSGTMATLTISGAQVEDEADYYCYSTDASGNHRVFGGGTKLTVLGQPKAAPSVTLFPPSSEELQANKATLVCLISDFYPGAVTVAWKADSSPVKAGVETTTPSKQSNNKYAASSYLSLTPEQWKSHRSYSCQVTHEGSTVEKTVAPTECS
B7: A-2-006 (22D4.006) x IL-21 (R5E, R76A) homodimer fusion (other, not shown: a dimerising Fc or GST)
heavy: EVQLVESGGSVVRPGGSLRLSCAASGFTVDDYSMSWVRQVPGKGLEWVSGINWNGGRTRYADAVKGRFTISRDSAKNSLYLQMNSLRAEDTALYYCAREFNNFESNWFDPWGQGTLVTVSSQGQDEHMIRMRQLIDIVDQLKNYVNDLVPEFLPAPEDVETNCEWSAFSCFQKAQLKSANTGNNERIINVSIKKLKAKPPSTNAGRRQKHRLTCPSCDSYEKKPPKEFLERFKSLLQKMIHQHLSSRTHGSEDS
light: SYELTQPPSVSVSPGQTARITCSGDALPKKYAYWYQQKPGQAPVLVISEDAKRPSGIPERFSGSSSGTMATLTISGAQVEDEADYYCYSTDASGNHRVFGGGTKLTVLGQPKAAPSVTLFPPSSEELQANKATLVCLISDFYPGAVTVAWKADSSPVKAGVETTTPSKQSNNKYAASSYLSLTPEQWKSHRSYSCQVTHEGSTVEKTVAPTECS
B8: A-2-006 (22D4.006) x IL-21 (R9E, R76A) homodimer fusion (other, not shown: a dimerising Fc or GST)
heavy: EVQLVESGGSVVRPGGSLRLSCAASGFTVDDYSMSWVRQVPGKGLEWVSGINWNGGRTRYADAVKGRFTISRDSAKNSLYLQMNSLRAEDTALYYCAREFNNFESNWFDPWGQGTLVTVSSQGQDRHMIEMRQLIDIVDQLKNYVNDLVPEFLPAPEDVETNCEWSAFSCFQKAQLKSANTGNNERIINVSIKKLKAKPPSTNAGRRQKHRLTCPSCDSYEKKPPKEFLERFKSLLQKMIHQHLSSRTHGSEDS
light: SYELTQPPSVSVSPGQTARITCSGDALPKKYAYWYQQKPGQAPVLVISEDAKRPSGIPERFSGSSSGTMATLTISGAQVEDEADYYCYSTDASGNHRVFGGGTKLTVLGQPKAAPSVTLFPPSSEELQANKATLVCLISDFYPGAVTVAWKADSSPVKAGVETTTPSKQSNNKYAASSYLSLTPEQWKSHRSYSCQVTHEGSTVEKTVAPTECS
B9: A-1-003 (20A2.003) x IL-21 (R5A, R76E) homodimer fusion (other, not shown: a dimerising Fc or GST)
heavy: not shown
light: SYELTQPPSVSVSPGQTASITCSGDKLGDKYASWYQQKPGQSPVLVIYQDRKRPSGIPERFSGSNSGNTATLTISGTQAMDEADYYCQAFESSTEVFGGGTKLTVLGQPKAAPSVTLFPPSSEELQANKATLVCLISDFYPGAVTVAWKADSSPVKAGVETTTPSKQSNNKYAASSYLSLTPEQWKSHRSYSCQVTHEGSTVEKTVAPTECS
B10: A-1-003 (20A2.003) x IL-21 (R9E, R76A) homodimer fusion (other, not shown: a dimerising Fc or GST)
heavy: not shown
light: SYELTQPPSVSVSPGQTASITCSGDKLGDKYASWYQQKPGQSPVLVIYQDRKRPSGIPERFSGSNSGNTATLTISGTQAMDEADYYCQAFESSTEVFGGGTKLTVLGQPKAAPSVTLFPPSSEELQANKATLVCLISDFYPGAVTVAWKADSSPVKAGVETTTPSKQSNNKYAASSYLSLTPEQWKSHRSYSCQVTHEGSTVEKTVAPTECS
B11: A-1-003 (20A2.003) x IL-21 (R5Q, R76E) homodimer fusion (other, not shown: a dimerising Fc or GST)
heavy: not shown
light: SYELTQPPSVSVSPGQTASITCSGDKLGDKYASWYQQKPGQSPVLVIYQDRKRPSGIPERFSGSNSGNTATLTISGTQAMDEADYYCQAFESSTEVFGGGTKLTVLGQPKAAPSVTLFPPSSEELQANKATLVCLISDFYPGAVTVAWKADSSPVKAGVETTTPSKQSNNKYAASSYLSLTPEQWKSHRSYSCQVTHEGSTVEKTVAPTECS
B12: A-1-003 (20A2.003) x IL-21 (R5E, R76A) homodimer fusion (other, not shown: a dimerising Fc or GST)
heavy: not shown
light: SYELTQPPSVSVSPGQTASITCSGDKLGDKYASWYQQKPGQSPVLVIYQDRKRPSGIPERFSGSNSGNTATLTISGTQAMDEADYYCQAFESSTEVFGGGTKLTVLGQPKAAPSVTLFPPSSEELQANKATLVCLISDFYPGAVTVAWKADSSPVKAGVETTTPSKQSNNKYAASSYLSLTPEQWKSHRSYSCQVTHEGSTVEKTVAPTECS

Target: T1, cynomolgus monkey IL-21R, recombinant soluble (FLAG-His or Fc, not stated which) (cynomolgus monkey, UniProt G7Q0S8 41-253)
T1 construct: also called IL-21R Cy
Assay: ForteBio Octet

Kd, > 300 nM:
B1
B2
B3
B4
B5
B6
B7
B8
B9
B10
B11
B12
